From patent US20220064327A1 (KYMAB, published 2022)

Assays:
human factor IX = target: T1, human factor IX (human, UniProt P00740 47-461, 12 glutamic acid residues of the GLA domain are post-translationally γ-carboxylated); assay: SPR (Biacore 8K), antibody captured on anti-human IgG Fc CM4 chip, human FIX injected alone as analyte (10 µM, 180 s per Example 11) [i), B(i]
T1 construct: Zymogen used as analyte in SPR, reconstituted at 1 mg/ml; also called FIX; Human FIX (MW ~55 KDa)
Experimental: (§1) The binding kinetics of the purified bispecific antibody was compared to an isotype control (ISTC). […] FIG. 21A.
(§2) Bispecific antibody (ligand), which had been purified by Protein A capture followed by ion exchange chromatography, was captured on to the anti-human IgG Fc CM4 surface at approximately 2 μg/ml. The ligand was injected at 10 μg/ml for 60 seconds at 10 μl/min in one active channel. The run was performed at 25° C. using neutral pH HBS-P 1×+CaCl₂ 2.5 mM as running buffer.

[1] = target: human FIX and human FX mixed 1:1 (10 µM 10 µM); assay: SPR, bispecific captured on anti-human IgG Fc, second injection of a 1:1 mixture of FIX and FX
human factor X [2] = target: T2, human factor X (human, UniProt P00742 41-179; P00742 183-488); assay: SPR, bispecific captured on anti-human IgG Fc, FIX then FX injected
T2 construct: Zymogen used as analyte in SPR; also called FX; Human FX (MW ~58 KDa)
Experimental: as §1, §2

human factor X [3] = target: T2, human factor X; assay: cell-based or functional assay

T2 sequence (P00742 41-179, chain 1 of 2): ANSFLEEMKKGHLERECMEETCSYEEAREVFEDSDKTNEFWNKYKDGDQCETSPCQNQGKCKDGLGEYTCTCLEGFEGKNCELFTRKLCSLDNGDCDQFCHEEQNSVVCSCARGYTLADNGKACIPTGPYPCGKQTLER
T2 sequence (P00742 183-488, chain 2 of 2): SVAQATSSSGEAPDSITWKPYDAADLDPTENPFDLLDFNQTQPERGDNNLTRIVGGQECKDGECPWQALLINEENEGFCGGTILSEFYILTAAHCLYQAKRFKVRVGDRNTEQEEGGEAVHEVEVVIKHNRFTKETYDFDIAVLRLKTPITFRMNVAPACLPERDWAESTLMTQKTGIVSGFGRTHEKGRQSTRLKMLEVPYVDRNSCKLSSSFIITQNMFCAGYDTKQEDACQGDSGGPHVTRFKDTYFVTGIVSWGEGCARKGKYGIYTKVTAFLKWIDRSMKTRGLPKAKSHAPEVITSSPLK
T1 sequence (P00740 47-461 limits assumed): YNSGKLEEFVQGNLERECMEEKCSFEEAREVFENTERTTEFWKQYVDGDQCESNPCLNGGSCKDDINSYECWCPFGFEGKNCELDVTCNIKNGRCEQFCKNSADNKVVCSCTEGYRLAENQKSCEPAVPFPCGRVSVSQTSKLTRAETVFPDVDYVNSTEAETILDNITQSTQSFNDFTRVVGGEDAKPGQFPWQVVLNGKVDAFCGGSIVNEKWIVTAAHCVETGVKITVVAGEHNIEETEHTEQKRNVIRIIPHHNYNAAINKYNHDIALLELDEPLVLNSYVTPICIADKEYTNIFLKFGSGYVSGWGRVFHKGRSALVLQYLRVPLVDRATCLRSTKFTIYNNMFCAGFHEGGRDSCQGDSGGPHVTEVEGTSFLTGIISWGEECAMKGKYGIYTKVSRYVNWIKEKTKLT

Binder	binding result (human factor IX)	response above that of the anti-FX monospecific antibody (RU) [1]	binding result (human factor X [2])	EC50, kinetic FXase assay (FIXa-catalysed activation of FX to FXa, OD405 nm at 600 s) (human factor X [3])
FIXxFX bispecific antibody IXAX-0436.0202.0128 (bispecific antibody, human IgG4 S228P, lambda, also called N436 bispecific antibody) heavy 1: EVQLVESGGGFVQPGGSLRLSCAVSGFTFNSYWMSWVRQAPGKGLEWVANINQDGSEKFYVASVKGRFTMSRDNAKKSVYVQMNSLRAEDTAVYYCAREGYSSISYYGMDVWGQGTTVTVSSASTKGPSVFPLAPCSRSTSESTAALGCLVKDYFPEPVTVSWNSGALTSGVHTFPAVLQSSGLYSLSSVVTVPSSSLGTQTYTCNVDHKPSNTKVDKRVESKYGPPCPPCPAPEFLGGPSVFLFPPKPKDTLMISRTPEVTCVVVDVSQEDPEVQFNWYVDGVEVHNAKTKPREEQYNSTYRVVSVLTVLHQDWLNGKEYKCKVSNKGLPSSIEKTISKAKGQPREPQVYTLPPSQEEMTKNQVSLTCLVKGFYPSDIAVEWESNGQPENNYKTTPPVLDSDGSFFLYSKLTVDKSRWQEGNVFSCSVMHEALHNHYTQESLSLSP heavy 2: QVQLIQSGAEVQKPGASVKVSCKASRYSFTSYYMHWVRQAPGQGLEWMGIINPKSGSTSYAQKFQGRVTMTRDTSTSTVYMELSSLRSEDTAVYYCARDGYGSSSRCLQLWGQGTLVTVSSASTKGPSVFPLAPCSRSTSESTAALGCLVKDYFPEPVTVSWNSGALTSGVHTFPAVLQSSGLYSLSSVVTVPSSSLGTQTYTCNVDHKPSNTKVDKRVESKYGPPCPPCPAPEFLGGPSVFLFPPKPKDTLMISRTPEVTCVVVDVSQEDPEVQFNWYVDGVEVHNAKTKPREEQYNSTYRVVSVLTVLHQDWLNGKEYKCKVSNKGLPSSIEKTISKAKGQPREPQVYTLPPSQKEMTKNQVSLTCLVKGFYPSDIAVEWESNGQPENNYKTTPPVLDSDGSFFLYSKLTVDKSRWQEGNVFSCSVMHEALHNHYTQKSLSLSP light: SYVLTQPPSVSVAPGETARITCGGDNIGRKSVYWYQQKSGQAPVLVIYYDSDRPSGIPERFSGSNSGNTATLTISRVEAGDEADYYCQVWDGSSDHWVFGGGTKLTVLGQPKAAPSVTLFPPSSEELQANKATLVCLISDFYPGAVTVAWKADSSPVKAGVETTTPSKQSNNKYAASSYLSLTPEQWKSHKSYSCQVTHEGSTVEKTVAPTECS	binds	25 RU	binds	–
IXAX-1280.0999.0325 (bispecific antibody, human IgG4 S228P, lambda) heavy 1: EVQLVESGGGFVQPGGSLRLSCAVSGFRFNSYWMSWVRQAPGKGLEWVANINQDGSRKFYVASVKGRFTMSRDNAKKSVYVQMNSLRAEDTAVYYCAREGYSSIKYYGMDVWGQGTTVTVSSASTKGPSVFPLAPCSRSTSESTAALGCLVKDYFPEPVTVSWNSGALTSGVHTFPAVLQSSGLYSLSSVVTVPSSSLGTQTYTCNVDHKPSNTKVDKRVESKYGPPCPPCPAPEFLGGPSVFLFPPKPKDTLMISRTPEVTCVVVDVSQEDPEVQFNWYVDGVEVHNAKTKPREEQYNSTYRVVSVLTVLHQDWLNGKEYKCKVSNKGLPSSIEKTISKAKGQPREPQVYTLPPSQEEMTKNQVSLTCLVKGFYPSDIAVEWESNGQPENNYKTTPPVLDSDGSFFLYSKLTVDKSRWQEGNVFSCSVMHEALHNHYTQESLSLSP heavy 2: QVQLIQSGAKVKKPGASVKVSCKASRYKFTSYYMHWVRQAPGQGLEWMGIINPKSGSTSYAQKFQGRVTMTRDTSTSTVYMELSSLRSEDTAVYYCARDGYGSFSRLIQLWGQGTLVTVSSASTKGPSVFPLAPCSRSTSESTAALGCLVKDYFPEPVTVSWNSGALTSGVHTFPAVLQSSGLYSLSSVVTVPSSSLGTQTYTCNVDHKPSNTKVDKRVESKYGPPCPPCPAPEFLGGPSVFLFPPKPKDTLMISRTPEVTCVVVDVSQEDPEVQFNWYVDGVEVHNAKTKPREEQYNSTYRVVSVLTVLHQDWLNGKEYKCKVSNKGLPSSIEKTISKAKGQPREPQVYTLPPSQKEMTKNQVSLTCLVKGFYPSDIAVEWESNGQPENNYKTTPPVLDSDGSFFLYSKLTVDKSRWQEGNVFSCSVMHEALHNHYTQKSLSLSP light: YVLTQPPSVSVAPGETARITCGGDNIGRKSVYWYQQKSGQAPVLVIYYDSDRPSGIPERFSGSNSGNTATLTISRVEAGDEADYYCQVWDGSSDHWVFGGGTKLTVLGQPKAAPSVTLFPPSSEELQANKATLVCLISDFYPGAVTVAWKADSSPVKAGVETTTPSKQSNNKYAASSYLSLTPEQWKSHKSYSCQVTHEGSTVEKTVAPTECS	–	–	–	3.99 nM
